Assay results: paper PMC12412572, “Natural Allelic Variations in IbCHYR1–IbZnFR Complex Regulate Fusarium Root Rot Resistance in Sweet Potato”

T1: IbZnFR (CCCH-type zinc-finger protein) (Ipomoea batatas, UniProt A0A6M2VA70 1-565)
T1 sequence: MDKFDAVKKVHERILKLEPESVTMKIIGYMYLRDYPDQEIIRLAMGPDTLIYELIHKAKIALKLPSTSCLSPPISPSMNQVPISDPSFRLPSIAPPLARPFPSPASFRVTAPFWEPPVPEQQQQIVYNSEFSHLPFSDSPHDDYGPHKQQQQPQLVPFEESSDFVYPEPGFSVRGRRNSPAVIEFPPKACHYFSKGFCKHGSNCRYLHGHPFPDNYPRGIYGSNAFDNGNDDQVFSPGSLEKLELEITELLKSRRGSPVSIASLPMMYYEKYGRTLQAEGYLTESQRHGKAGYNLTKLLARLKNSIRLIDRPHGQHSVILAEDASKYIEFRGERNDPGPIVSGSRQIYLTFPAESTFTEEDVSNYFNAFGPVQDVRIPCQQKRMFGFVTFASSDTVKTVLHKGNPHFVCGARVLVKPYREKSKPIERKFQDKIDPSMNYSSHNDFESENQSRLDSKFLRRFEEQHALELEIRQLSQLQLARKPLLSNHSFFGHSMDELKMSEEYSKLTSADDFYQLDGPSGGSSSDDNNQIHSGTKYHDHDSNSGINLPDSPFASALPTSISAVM

B1: IbMDAR4 promoter wt probe (dsDNA)
DNA 1: ACATTTACCCGGGAGAACGGATAACG
DNA 2: CGTTATCCGTTCTCCCGGGTAAATGT
B2: IbPR5 promoter wt probe (dsDNA)
DNA 1: ATTGTACTAAAAGGGAGAGGATACAAGGTT
DNA 2: AACCTTGTATCCTCTCCCTTTTAGTACAAT
B3: IbCSLE1 promoter wt probe (dsDNA)
DNA 1: ATAGTCTTTGTAGGGAGACACAGACACCAT
DNA 2: ATGGTGTCTGTGTCTCCCTACAAAGACTAT
B4: IbMRL7L promoter wt probe (dsDNA)
DNA 1: CTTCTTATCCCTCTAACTTTCCTACA
DNA 2: TGTAGGAAAGTTAGAGGGATAAGAAG
B5: IbCOMT promoter wt probe (dsDNA)
DNA 1: AAACCGTTCTCTCTCTTCTTCTTCATCTTC
DNA 2: GAAGATGAAGAAGAAGAGAGAGAACGGTTT

Each binder was assayed against T1, IbZnFR (CCCH-type zinc-finger protein) (assay: EMSA; LightShift Chemiluminescent EMSA Kit (Thermo), manufacturer's instructions; buffer, salt, pH and temperature not stated). Conditions: protein: recombinant; tags: His (pET-28a); label: 5' biotin; blunt.

Binding result, binds:
B1
B2
B3
B4
B5
